Assays:
[1] = molecular target: non-neddylated CUL1/RBX1 (StrepII2x-CUL1/RBX1), wild type (human) (UniProt Q13616); test: SPR; StrepII2x-CUL1/RBX1 (non-neddylated) captured on a Strep-Tactin CM5 chip (~100 RU), CSN injected in single cycle (40-5120 nM, 180 s contact), 25 C, HBS-P+ with 1 mM TCEP; steady-state fit, 1:1 Langmuir
[2] = molecular target: neddylated CUL1/RBX1 (StrepII2x-^N8CUL1/RBX1), wild type (UniProt Q13616); test: SPR; StrepII2x-^N8CUL1/RBX1 captured on a Strep-Tactin CM5 chip (~100 RU), CSN injected in single cycle (0.625-80 nM, 80 s contact), 25 C, 10 mM HEPES pH 7.4, 150 mM NaCl, 0.05% Tween 20, 1 mM TCEP; steady-state fit, 1:1 Langmuir
[3] = molecular target: ^P32-His-PKA-N8CUL1/RBX1 (CUL1/RBX1 neddylated with His-PKA-NEDD8, 32P-labelled) (UniProt Q13616)
^P32-His-PKA-N8CUL1/RBX1 (CUL1/RBX1 neddylated with His-PKA-NEDD8, 32P-labelled), sequence (Q13616 whole entry, chain 1 of 3): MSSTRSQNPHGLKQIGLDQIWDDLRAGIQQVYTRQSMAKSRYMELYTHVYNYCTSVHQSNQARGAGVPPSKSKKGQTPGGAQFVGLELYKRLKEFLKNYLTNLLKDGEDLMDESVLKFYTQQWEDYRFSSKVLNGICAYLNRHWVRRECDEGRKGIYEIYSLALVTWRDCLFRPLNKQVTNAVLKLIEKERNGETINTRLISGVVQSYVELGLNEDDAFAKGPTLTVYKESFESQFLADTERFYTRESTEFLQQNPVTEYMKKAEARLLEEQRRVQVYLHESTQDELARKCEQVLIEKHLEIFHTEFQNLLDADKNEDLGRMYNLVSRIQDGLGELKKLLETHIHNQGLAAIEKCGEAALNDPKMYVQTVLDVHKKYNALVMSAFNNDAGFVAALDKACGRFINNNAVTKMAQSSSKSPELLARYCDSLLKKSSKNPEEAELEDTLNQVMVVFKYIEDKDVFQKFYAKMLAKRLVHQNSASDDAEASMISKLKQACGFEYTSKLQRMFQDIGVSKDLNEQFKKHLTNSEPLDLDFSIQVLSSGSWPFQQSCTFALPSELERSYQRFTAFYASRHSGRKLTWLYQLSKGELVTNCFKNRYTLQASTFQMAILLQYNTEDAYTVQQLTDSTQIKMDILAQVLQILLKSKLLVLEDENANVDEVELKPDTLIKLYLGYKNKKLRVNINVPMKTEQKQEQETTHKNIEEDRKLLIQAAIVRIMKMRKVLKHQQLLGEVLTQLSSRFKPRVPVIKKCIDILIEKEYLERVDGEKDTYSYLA
^P32-His-PKA-N8CUL1/RBX1 (CUL1/RBX1 neddylated with His-PKA-NEDD8, 32P-labelled), sequence (P62877 whole entry, chain 2 of 3, further chain): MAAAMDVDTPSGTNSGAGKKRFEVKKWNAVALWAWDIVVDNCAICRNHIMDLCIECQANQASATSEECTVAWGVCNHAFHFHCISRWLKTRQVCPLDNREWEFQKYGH
^P32-His-PKA-N8CUL1/RBX1 (CUL1/RBX1 neddylated with His-PKA-NEDD8, 32P-labelled), sequence (Q15843 1-76, chain 3 of 3, further chain): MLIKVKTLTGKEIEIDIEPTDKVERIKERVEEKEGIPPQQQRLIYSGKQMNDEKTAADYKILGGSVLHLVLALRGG

neddylated CUL1/RBX1 (StrepII2x-^N8CUL1/RBX1), wild type, sequence (Q13616 whole entry, chain 1 of 3): as the sequence (Q13616 whole entry, chain 1 of 3) above
neddylated CUL1/RBX1 (StrepII2x-^N8CUL1/RBX1), wild type, sequence (P62877 whole entry, chain 2 of 3, further chain): as the sequence (P62877 whole entry, chain 2 of 3, further chain) above
neddylated CUL1/RBX1 (StrepII2x-^N8CUL1/RBX1), wild type, sequence (Q15843 1-76, chain 3 of 3, further chain): as the sequence (Q15843 1-76, chain 3 of 3, further chain) above
non-neddylated CUL1/RBX1 (StrepII2x-CUL1/RBX1), wild type (human), sequence (Q13616 whole entry, chain 1 of 2): as the sequence (Q13616 whole entry, chain 1 of 3) above
non-neddylated CUL1/RBX1 (StrepII2x-CUL1/RBX1), wild type (human), sequence (P62877 whole entry, chain 2 of 2, further chain): as the sequence (P62877 whole entry, chain 2 of 3, further chain) above

Row | Kd [1] [nM] | Kd [2] [nM] | in vitro deneddylation activity, normalised to CSN^5WT [3] [% reduction] | Substance
1 | 90 | 6 | – | 8CSN^5H138A (CSN^5H138A complex without CSNAP: CSN1-8, CSN5 H138A) (from UniProt Q13098 1-491; P61201 1-443; Q9UNS2 1-423; Q9BT78 1-406; Q92905 1-334; Q7L5N1 1-327; Q9H9Q2 1-264; Q99627 1-209)
2 | – | – | > 50 | CSN^5T105F (9CSN with CSN5 T105F) (from UniProt Q13098 1-491; P61201 1-443; Q9UNS2 1-423; Q9BT78 1-406; Q92905 1-334; Q7L5N1 1-327; Q9H9Q2 1-264; Q99627 1-209; Q8WXC6 1-57) (complex)

— publication PMC12848000
